Changes are numbered by the printed parent chain. Names may count otherwise.
Tests used:
Assay in all cases: SEC-MALS
[1] = biological target: hsSMNΔ5(T274I)•Gemin2, Q16637;O14893; conditions: chain shown with the change; 20°C; peak concentration 0.5 µM; parent: 231 (188-454)
[2] = biological target: hsSMNΔ5(G279V)•Gemin2, Q16637;O14893; conditions: chain shown with the change; 20°C; peak concentration 0.3 µM; parent: 231 (188-454)
[3] = biological target: hsSMNΔ5(H273R)•Gemin2, Q16637;O14893; conditions: chain shown with the change; 20°C; peak concentration 0.5 µM; parent: 231 (188-454)

B1: hsSMNΔ5•Gemin2 complex, O14893 T274I (protein)
chain 1: MAMSSGGSGGGVPEQEDSVLFRRGTGQSDDSDIWDDTALIKAYDKAVASFKHALKNGDICETSGKPKTTPKRKPAKKNKSQKKNTAASLQQWKVGDKCSAIWSEDGCIYPATIASIDFKRETCVVVYTGYGNREEQNLSDLLSPICEVANNIEQNAQENENESQVSTDESENSRSPGNKSDNIKPKSAPWNSFLPPPPPMPGPRLGPGKIIPPPPPICPDSLDDADALGSMLISWYMSGYHIGYYMGFRQNQKEGRCSHSLN
chain 2: MAWVPAESAVEELMPRLLPVEPCDLTEGFDPSVPPRTPQEYLRRVQIEAAQCPDVVVAQIDPKKLKRKQSVNISLSGCQPAPEGYSPTLQWQQQQVAQFSTVRQNVNKHRSHWKSQQLDSNVTMPKSEDEEGWKKFCLGEKLCADGAVGPATNESPGIDYVQIGFPPLLSIVSRMNQATVTSVLEYLSNWFGERDFTPELGRWLYALLACLEKPLLPEAHSLIRQLARRCSEVRLLVDSKDDERVPALNLLICLVSRYFDQRDLADEPS
- other: SEC-MALS Mw [1]: 198

B2: hsSMNΔ5•Gemin2 complex, O14893 G279V (protein)
chain 1: B1 chain 1 with I242T, G247V
chain 2: B1 chain 2
- other: SEC-MALS Mw [2]: 384

B3: hsSMNΔ5•Gemin2 complex, O14893 H273R (protein)
chain 1: B1 chain 1 with H241R, I242T
chain 2: B1 chain 2
- other: SEC-MALS Mw [3]: 266
